Biological target: the molecule itself
Test: crystal structure

Ac-GKKSAWATVISALATVISALATVISAWATVG-NH2 [K2-CCTM-VbIc]
stoichiometry N: 8

— paper PMC7611114 (Nature chemistry, 2021)
